Columns and labels:
[1] = molecular target: T1, human CD73 on the cell surface (MDA-MB-231 and SKOV3 tumor cells) (human, UniProt P21589 27-549); assay: flow cytometry on SK-OV-3 cells
T1 construct: whole, on cells; also called cell surface CD73; CD73 on the surface of human tumor cells
T1 sequence (looked up): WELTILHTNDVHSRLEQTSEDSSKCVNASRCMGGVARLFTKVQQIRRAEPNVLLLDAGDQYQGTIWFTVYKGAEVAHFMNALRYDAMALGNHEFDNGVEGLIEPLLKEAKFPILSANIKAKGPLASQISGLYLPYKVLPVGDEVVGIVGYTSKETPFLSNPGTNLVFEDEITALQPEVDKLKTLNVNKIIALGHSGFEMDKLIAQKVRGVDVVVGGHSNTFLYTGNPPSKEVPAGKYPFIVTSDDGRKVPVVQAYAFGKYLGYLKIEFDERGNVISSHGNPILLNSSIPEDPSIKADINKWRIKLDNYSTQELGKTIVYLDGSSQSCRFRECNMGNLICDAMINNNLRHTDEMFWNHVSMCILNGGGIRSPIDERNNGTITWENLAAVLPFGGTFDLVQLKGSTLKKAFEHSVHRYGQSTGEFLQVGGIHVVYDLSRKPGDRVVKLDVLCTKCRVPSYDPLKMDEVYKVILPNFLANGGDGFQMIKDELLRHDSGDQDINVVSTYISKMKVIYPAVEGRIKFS
Procedure: In this example, the exemplary antibodies of the present application were compared with anti-CD73 antibodies described in other patent applications. Antibodies MEDI9447 and Hu101-28 (with CDR sequences from PCT patent applications WO 2016/075099 and WO 2018/137598, respectively) were cloned into eukaryotic expression vectors containing the hIgG1-kappa constant region. The binding ability of the humanized antibodies Hab7C3C2.5 and Hab1F2F9.15 to cell surface CD73 was assessed using tumor cell lines MDA-MB-231 and SKOV3 which endogenously express human CD73 on the cell surface. The cells were seeded in a 96-well plate at a density of 2×10⁶ cells/mL, with 100 μL per well. 4-fold gradient dilutions (0-100 nM) of the antibodies were added, and the mixture was incubated at 4° C. for 1 h. A goat anti-human secondary antibody was added, and the mixture was incubated at 4° C. in the dark for 50 min for labeling. The fluorescence intensity of the cells was then measured by a flow cytometer.

[2] = molecular target: T2, C-terminal portion of the CD73 protein (Homo sapiens (Human), UniProt P21589 337-549); assay: ELISA, plate coated with CD73 C-terminal protein at 1 µg/mL
T2 construct: also called CD73 C-terminal protein; C-terminus of the CD73 protein
T2 sequence: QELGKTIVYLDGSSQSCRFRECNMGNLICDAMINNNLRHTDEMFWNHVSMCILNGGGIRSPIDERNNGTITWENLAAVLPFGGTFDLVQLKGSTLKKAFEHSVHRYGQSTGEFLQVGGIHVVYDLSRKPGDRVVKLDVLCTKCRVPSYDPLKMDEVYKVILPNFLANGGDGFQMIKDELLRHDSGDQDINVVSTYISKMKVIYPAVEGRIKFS
Procedure: In this example, the C-terminal portion (SEQ ID NO. 41) and the N-terminal portion (SEQ ID NO. 42) of the CD73 protein were separately constructed, and the epitopes recognized by the antibodies were detected by ELISA method. Elisa plates were respectively coated with the CD73 N-terminal and C-terminal proteins at a concentration of 1 μg/mL. The test antibodies were diluted in a gradient.

[3] = molecular target: T3, cynomolgus monkey CD73 protein (cynomolgus monkey, UniProt A0A2K5V5U7 27-547); assay: BLI (Fortebio), cynomolgus CD73 on HIS1K biosensors, antibody as analyte
T3 construct: construct not described
T3 sequence: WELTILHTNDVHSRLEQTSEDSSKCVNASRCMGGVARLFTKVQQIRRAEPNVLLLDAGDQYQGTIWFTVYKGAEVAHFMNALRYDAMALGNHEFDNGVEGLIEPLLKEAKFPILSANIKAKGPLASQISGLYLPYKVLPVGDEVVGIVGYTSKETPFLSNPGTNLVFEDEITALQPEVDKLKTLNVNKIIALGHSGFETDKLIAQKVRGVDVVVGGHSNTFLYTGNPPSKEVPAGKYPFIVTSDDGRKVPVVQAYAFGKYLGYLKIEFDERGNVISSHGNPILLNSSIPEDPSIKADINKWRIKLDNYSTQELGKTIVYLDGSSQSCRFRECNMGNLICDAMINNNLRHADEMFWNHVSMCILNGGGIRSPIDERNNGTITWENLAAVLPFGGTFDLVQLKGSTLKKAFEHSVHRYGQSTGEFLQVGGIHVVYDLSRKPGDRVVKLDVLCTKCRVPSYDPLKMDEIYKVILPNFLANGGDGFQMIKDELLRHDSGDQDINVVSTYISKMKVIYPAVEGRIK
Procedure: In this example, the cross-binding ability of the exemplary humanized anti-CD73 antibodies of the present application to cynomolgus monkey CD73 was assayed by a Fortebio experiment. The specific implementation steps included immobilizing the cynomolgus monkey CD73 protein onto HIS1K biosensors. […] The times for the ligand-analyte binding and dissociation were 120 s and 300 s, respectively. The data of the antigen-antibody affinity were calculated by regression according to the binding curves using an analysis software.

B1: Hab1F2F9.15 (antibody, human IgG1, kappa, L234A L235A, V domains shown)
VH: QVQLVQSGAEVKKPGASVKVSCKASGYTFTSYWMHWVRQAPGQRLEWMGNINPSNGGTKYSQKFQGRVTITVDTSASTAYMELSSLRSEDTAVYYCARRDYGSPSYWGQGTTVTVSS
VL: DIQMTQSPSSLSASVGDRVTITCKASQDINSYLTWFQQKPGKAPKSLIYRTNILLDGVPSRFSGSGSGTDYTLTISSLQPEDFATYYCLQYHEFPVTFGGGTKLEIKR
notes: Humanized 1F2F9; also called Huab1F2F9.15; HuablF2F9.15
[1]
  EC50: 0.19 nM
[2]
  binding result: no binding
[3]
  Kd: 0.814 nM
  koff: 0.0017 s⁻¹
  kon: 2.09e+06 M⁻¹ s⁻¹

B2: Hab7C3C2.5 (antibody, human IgG1, kappa, L234A L235A, V domains shown)
VH: QVQLVQSGAEVKKPGASVKVSCKASGYTFTSYDINWVRQATGQGLEWIGWIYPRDGFTKYNEKFKGRVTLTVNTSISTAYMELSSLRSEDTAVYYCARKEGYRGDWYFDVWGQGTTVTVSS
VL: DIQMTQSPSSLSASVGDRVTITCRASGNVHNYLAWYQQKPGKAPKLLLYNAKTLASGVPSRFSGSGSGTDYTLTISSLQPEDFATYYCQHFWSTPWTFGGGTELEIKR
notes: Humanized 7C3C2; also called Hab7C3C.5
[1]
  EC50: 0.07 nM
[2]
  binding result: no binding
[3]
  Kd: 0.732 nM
  koff: 0.00299 s⁻¹
  kon: 4.08e+06 M⁻¹ s⁻¹

— patent US20260152567A1 (CSPC MEGALITH BIOPHARMACEUTICAL, published 2026)
